Experimental data from a protein production outcome set (Wang et al. 2014).

Assay: label from the status in PepcDB records
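Also: failed if final PepcDB status was selected cloned or expressed and not failed if soluble or beyond.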

Row | Sequence | protein production
1 | MLHIDDAMIEDAVTPQAAQEVLHAAFLDFGRGSAAMQRRVRTEAGGVKLSTLGAVIPGQGVAGAKVYTTIKGQFQFVILLFSAADGRPLATCDAGTLTRKRTAACTVLAAGALARPRSSVLGLFGAGTQGVEHAAQLSARFALEAILVHDPHASPEVVERIGRRCGVPARMAAPADIAAQADIVVTATRSATPLFAGQALRAGAFVGAIGSSLPHTRELDDEALRRARAVVVEWREQTLSEAGDLVLAAPDTGLDAKVVELADVLAGRATARQADEDIVIYKSVGVGLEDVALAGYAYRRLAAQRGWPAP | failed
2 | MKKYLDKLQNMPIGISGTCLAFITLSNSWNLKGINYFKPIAIFLAVCMLSLMILRLIRFPKVMYEELKNPVTGTFYPTMGMVVWLVSGFFYPYFPVVCSWLWIAAVIYHYGIVIFYTIIRIKERKFENIMPTCFIVYTGMITGSVASKGMDGVIPQIPQIAHFMLMFGFIFYTILLPLVLYIVFKSEILDDHKLPTVGIICSPAPLGVVGILTIEPNPNPYMLAWLIITGLILLVVVYGYILKLFKEGFKPSYAAFTFPLAIATLSAFKLSTYFTGLGYAKMANLFKFLGDVEIFIATYVIFFMLLNFLNMFFKAISPKLGEYVEEEEELIGGTLYSK | failed
3 | MMKLLHLFMDEITMDPLHAVYLTVGLFVITFFNPGANLFVVVQTSLASGRRAGVLTGLGVALGDAFYSGLGLFGLATLITQCGEIFSLIRIVGGAYLLWFAWCSSMRRHSTPQMSTLQQPISAPWYVFFRRGLITDLSNPQTVLFFISIFSVTLHAETPTWARLMAWAGIVLASIIWRVFLSQAFSLPAVRRAYGRMQRVASWVIGAIIGVFALRLIYEGVTQR | failed
4 | MAGGAVSKGNVIVGLFRKRTSLLITSILLGLIGLPSLGVLDIGNLARAEKAATNAPSPTTPDIKPSELKPAYPASAPPPRVDPLPDERDMQERVVEIDYRVSNLLGDFAGNLWVGSWRGLSRIDPKTGKILARVSLPNVAIGALAQDKVGRLWVGTYEGLKRVEPRTNEISAQNLFLPSKRVLSLLTDKRGYLWVGTDNGLALVSPDQGLIMTTVKNLPGVSGNTLTLDADGQLWTGTLDGVVRINTASALIMKRINDLPGTTVQALAISPEGLIWAGMPNNLLVINPKTGVVLRSVTRLRGRNVTAVRFAKDGSVWVGTHNGLLRLNPNTGAVLDEVAGLPSSRVLSLMPDVANKLWIGTSEGLAWLMPKMDKAKPHLAFSRLVK | failed
5 | PRKASRKPPREESSATCVLEQPGALGAQILLVQRPNSGLLAGLWEFPSVTWEPSEQLQRKALLQELQRWAGPLPATHLRHLGEVVHTFSHIKLTYQVYGLALEGQTPVTTVPPGARWLTQEEFHTAAVSTAMKKVFRVYQGQ | not failed
6 | MAARRAPISRRDRPAKPALSRRWIVDTAVALMRAEGLEKVTMRRLAQELDTGPASLYVYVANTAELHAAVLDALLGEVDLTGAGAEEDWREQLRAVLTSYTLVLFAHPQLARSALVARPSGENYLRLVERVLELLARSGAPGAQVAWGVDKLLQDATATAAEQATQEHDPASHEDWSATVRALRDADEATHPAIASHMPLLVAGSAHDRLRWSFDVLVNGITRTPVPGPARGAAG | not failed
7 | MHIAILGCTSQIAKDLIRSIYVYSQHDLILFGRTPQQTQSWLAENGITSRCSVNQYEEYPNIDHDVVINFVGIGDPSKAAAMGGSIFDITLHYDELVLNELKKYPDRRYLFLSSGAAYGSSFLEPADADTPSTININNLLPQEYYSVAKLHAECRHRSLKEYAIVDLRVFNVFSRTQDLEARFFITDIVRSIHSGTELITSSDMIYRDFMHPKDFYQLVERVLNAPPMNISLDCYSRQPVDKTTLLDEMKKTFGLSYRVKESNMSINATGIKPCYYSKNKRAAEFGYLPEYSSLETIIEETNAILGLQKTVLEHHHHHH | not failed
8 | MVNNDTLSGDVYTASEAKQVQNVSYGTIVNVRPVQIQGGDDSNVIGAIGGAVLGGFLGNTVGGGTGRSLATAAGAVAGGVTGQGVQSAMNKTQGVELEIRKDDGNTIMVVQKQGNTRFSPGQRVVLASNGSQVTVSPRLEHHHHHH | failed
9 | MFFMLFVLRIPAAFTLMMVGFLGIATVTTWDAALAMLGSELWGSFSNYGLTVIPLFILVGEIVHYAGYNNSLYHATYKWFGHKRGGLAMTTILASAAFSAISGSNTATAATMSAVAIPAMKEYKYHPLLNAGSVAAGATLGVLIPPSIVLVVYGLYTGQSIGKLFFGNVIPSAILTILILLTVVWICRRHPDWGPEGPRSGWGERFAALPEAIDILILFAIIMYALFTGVVTATEAAAVSCFLALVICGLRRKLTWKKLTGALVDTLRISCMVFMIVAGAVIFAKFLTITRLPYETAEWISSLDLPRWMVLWVILACYIIGGCIMDALAFLLVSLPIFYPLVTQLGYDPIWFGQVITIVTTMGSIMPPIGICCYVVSGMSGIPLGTVFRSGLYYMPSYIASIAILMVSPYWTVLVLADLVK | failed
10 | SQNSKTPFPEYFWSWFETYKESSVSERTKLTYKNTFNVLKKHLGGIPIEEMDRRLYRKFIAEFGKDHAKSTVSKFNSLYHACVKDAMYDGDMTKDFIAGTDIVYNRKKTRK | failed
11 | MKRLSITVRLTLLFILLLSVAGAGIVWTLYNGLASELKWRDDTTLINRTAQIKQLLIDGVNPDTLPVYFNRMMDVSQDILIIHGDSINKIVNRTNVSDGMLNNIPASETISAAGIYRSIINDTEIDALRINIDEVSPSLTVTVAKLASARHNMLEQYKINSIIICIVAIVLCSVLSPLLIRTGLREIKKLSGVTEALNYNDSREPVEVSALPRELKPLGQALNKMHHALVKDFERLSQFADDLAHELRTPINALLGQNQVTLSQTRSIAEYQKTIAGNIEELENISRLTENILFLARADKNNVLVKLDSLSLNKEVENLLDYLEYLSDEKEICFKVECNQQIFADKILLQRMLSNLIVNAIRYSPEKSRIHITSFLDTNSYLNIDIASPGTKINEPEKLFRRFWRGDNSRHSVGQGLGLSLVKAIAELHGGSATYHYLNKHNVFRITLPQRN | failed
12 | MNGYTISAIYAHIASGISLEKRKGFFEMLDEIINNKVEKVIITYKDRLSRVGFDLFSYLFRKYRTEIAVISEVGNTKLDSEEVFEEIVSMLHSYSMKMYSKRKNHYIEVGYEG | failed
13 | MPSEAFRRHRAYRENKLQPLVSVLICAYNVEKYFAQSLAAVVNQTWRNLDILIVDDGSTDGTLAIAQRFQEQDGRIRILAQPRNSGLIPSLNIGLDELAKSGGGGEYIARTDADDIAAPDWIEKIVGEMEKDRSIIAMGAWLEVLSEEKDGNRLARHHEHGKIWKKPTRHEDIADFFPFGNPIHNNTMIMRRSVIDGGLRYNTERDWAEDYQFWYDVSKLGRLAYYPEALVKYRLHANQVSSKYSIRQHEIAQGIQKTARNDFLQSMGFKTRFDSLEYRQIKAVAYELLEKHLPEEDFERARRFLYQCFKRTDTLPAGAWLDFAADGRMRRLFTLRQYFGILHRLLKNR | failed
14 | FLNSVLNFSLFLLNAHDSYLEVMRNRDTLSRMISSLEEVLDVSRRAELIEKTLHYLKDMFPGIVLSSVSLLEDGKIKTFFLKNGQIEVVNLKRGIVVKAFETKRDLFVNDVRDFPEFYDVTNGRTRSAAAIFFEYENTPLVLEIEKDSEITEYELSSLKMMARILAIFFSR | failed
15 | LVRQEETLRLAIDAADVGTWDHDLETGEVRLSDRCYAMFGVTPGEPVTHETLMPFTHPADVVRVQEAVARALDPAIRADYAIEFRVNGRDDHVERWLSAKGEVSFDNEGRPRRFLGAVVNITERKRAELHLRLLVNELNHRVKNSLATIQAIAAQSFNGQRDMDEAKEAFSNRIVALAEAHDLLTRENWEGAEMHDVAARVAALHGGDARFELSGVAIRLSPKTALSLSMALHELATNAVKYGALSVPEGVVRIVWDMAPEP | failed
16 | MLVLYRASIRFKLRKNKNSFDSSNYFYGGNNICIINTKWGKHSGIGGYAEIIDTLVGNFTNISSWAKIGIRDHIHTNFLICDFVYKDNDHIMPPGISSFEDYWVKIGNDVWVGTNVTILRGVEVGDGAVIAAGSVVTKSIPPYAIVGGNPAKFIKWRFPFEVREKLLEIKWWDWDDDLIKEKKDYLQNLVGFDMDKYKIEYRKRKEDLFYLEHHHHHH | not failed
17 | MGSLQPDAGNASWNGTEAPGGGARATPYSLQVTLTLVCLAGLLMLLTVFGNVLVIIAVFTSRALKAPQNLFLVSLASADILVATLVIPFSLANEVMGYWYFGKAWCEIYLALDVLFCTSSIVHLCAISLDRYWSITQAIEYNLKRTPRRIKAIIITVWVISAVISFPPLISIEKKGGGGGPQPAEPRCEINDQKWYVISSCIGSFFAPCLIMILVYVRIYQIAKRRTRVPPSRRGPDAVAAPPGGTERRPNGLGPERSAGPGGAEAEPLPTQLNGAPGEPAPAGPRDTDALDLEESSSSDHAERPPGPRRPERGPRGKGKARASQVKPGDSLPRRGPGATGIGTPAAGPGEERVGAAKASRWRGRQNREKRFTFVLAVVIGVFVVCWFPFFFTYTLTAVGCSVPRTLFKFFFWFGYCNSSLNPVIYTIFNHDFRRAFKKILCRGDRKRIV | failed
18 | MKQNQQNKKSFEVQLTQLFLFTSLPLFFLLIGVMIYANISLYLILLTMLISSLVIVYSHSKLHQKSAYQFRSLSNLLDAMVQGDYSLRARISDGDEALNELVDSINSLSLRLNKQRIETTESQLLLTTVINHIDVAILALNENNELVLTNPAAKKLLQIPAEQQEFDLIESFSQFSQIAAMNSGNSQVMSLYFANQQGKFNVHLEEYRENGKPQKLVFITDVSTMLRSEERNAWQALVRVISHEINNSLSPIASISQSLRRLLARQEKLENHKEYLVEGLSIISQRSNSLTEFVNSYKQIASLPEPKKQPSSVLELVNKTVALYPDECIEVQNIDDITLVLDAVQFEQVLINLVKNAVEAVKSAGEAGKVAISGQVNGKVFSLSLADDGTGVSNLENLFVPFYSTKSKGSGIGLVLCRQIIEAHGGKITLTNRLGVSGCIATIELPL | failed
19 | MKKIAVTYGEEKYSYADIIKYVNYYSEFLDISKGDRVALMMENRPESIFSFFSIWAKKGIALSLDAGYTVEQLAFVLNDSKPKYIFVSNKIKEVVEKANEQVGNIVKIMVVDEITLPTDYVIKQEEYENDSNEDLAVIVYTSGTTGNPKGVMITYELEHHHHHH | not failed
20 | MAFKVVISDKEKSVQMEVDPSESRGLIGLTIGDEFDGSIIGLSGYKLKITGGSDKNGFPMKKTVPGARRIRSLVSGGVGYKPRRDGERRRKTFRGNTISDDIVQINTVVIEKGEKPLEELLGADEELEHHHHHH | failed
21 | MPREFKSFGSTEKSLLSKGHGEPSYSEIYAEPENFLEIEVHNPKTHIPNGMDSKGMFTDYEIICRTNLPSFHKRVSKVRRRYSDFEFFRKCLIKEISMLNHPKVMVPHLPGKILLSNRFSNEVIEERRQGLNTWMQSVAGHPLLQSGSKVLVRFIEAEKFVG | not failed
22 | MLAVLIGQHGEYLLIFLVSPGQFQEGVMTVHDHWQMDASAPELYERYLVPAITSVWADDLLDRIDPAKGECVLDVACGTGVVARRLAERGHVGRLVGIDLNGAMLAVARAKSSDVEWTEGSALDLPFATRSFDVVLCQLGLQFFPDRPQALREMARVLKPSGRLGLSVYSAIEHTPAANAFVQALDGFLGPESSRTKRAEHLTCNADEVGNWVRQAGFDRVGVETVTKQIGFPSALDYVRFQLTATPMAALLTREDDAGRERTIAAIADDVAARLDPSILANGRLTFPQESFVVVASLR | failed
